# T1: hGITR.mFc (dimeric recombinant human GITR ectodomain protein, mouse Fc fusion) (human)
# T1 construct: also called dimeric human GITR; dimeric GITR
# T1 chain: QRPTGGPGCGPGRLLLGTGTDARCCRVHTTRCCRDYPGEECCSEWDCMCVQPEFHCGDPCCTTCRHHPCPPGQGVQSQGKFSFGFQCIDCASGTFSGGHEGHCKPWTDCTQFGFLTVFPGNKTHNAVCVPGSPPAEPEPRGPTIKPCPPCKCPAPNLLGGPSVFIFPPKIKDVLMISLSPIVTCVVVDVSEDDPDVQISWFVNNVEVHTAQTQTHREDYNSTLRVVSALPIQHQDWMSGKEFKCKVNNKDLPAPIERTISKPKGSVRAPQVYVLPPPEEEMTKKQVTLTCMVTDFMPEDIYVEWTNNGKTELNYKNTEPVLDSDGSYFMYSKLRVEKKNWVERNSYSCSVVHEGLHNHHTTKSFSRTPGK
# T2: Jurkat/hCD20 cells (human CD20, no GITR; negative control cell line) (human, UniProt P11836 1-297)
# T2 construct: whole, on cells; Control cell line without engineered GITR; the only named engineered protein on it is hCD20
# T2 sequence (looked up): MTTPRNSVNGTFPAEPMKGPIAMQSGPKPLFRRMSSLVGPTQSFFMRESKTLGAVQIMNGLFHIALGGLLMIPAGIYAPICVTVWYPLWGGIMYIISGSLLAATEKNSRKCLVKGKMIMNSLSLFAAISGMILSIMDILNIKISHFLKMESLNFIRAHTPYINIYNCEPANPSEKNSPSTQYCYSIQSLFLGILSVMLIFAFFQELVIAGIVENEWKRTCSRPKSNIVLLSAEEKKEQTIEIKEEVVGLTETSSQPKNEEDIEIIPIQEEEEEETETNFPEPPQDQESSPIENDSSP
# T3: human GITR expressed on the cell surface (human, UniProt Q9Y5U5 26-241)
# T3 sequence: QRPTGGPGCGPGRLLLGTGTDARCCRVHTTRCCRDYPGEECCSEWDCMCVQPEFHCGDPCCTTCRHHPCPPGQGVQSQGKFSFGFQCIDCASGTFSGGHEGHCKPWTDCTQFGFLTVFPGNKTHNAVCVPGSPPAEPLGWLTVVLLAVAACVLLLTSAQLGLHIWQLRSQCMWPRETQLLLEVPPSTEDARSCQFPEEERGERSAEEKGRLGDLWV
# B1: mAb1 (antibody, human IgG1, kappa, V domains shown)
# VH: QVQLQESGPGLVKPSETLSLTCIVSGGSISGYFWNWIRQPPGKGLEWIGYIYYSGTTIYNPSLKSRFTISLDTSKNQFSLKLTSVTAADTAVYYCARESYDPSPRYFDHWGQGTLVTVSS
# VL: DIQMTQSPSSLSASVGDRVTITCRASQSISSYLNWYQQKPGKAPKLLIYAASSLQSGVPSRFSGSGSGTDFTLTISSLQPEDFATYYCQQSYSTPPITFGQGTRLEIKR
# notes: Human IgG1; N101D variant of CompAb1; also called N101D Variant; N101D
# What was measured:
# [1] = biological target: T1, hGITR.mFc (dimeric recombinant human …); assay: SPR Biacore T-200; purified antibody captured on anti-human Fc; 5 nM hGITR.mFc
# Experimental: For purified antibodies, Biacore experiments were performed as follows. Using a Biacore T-200 instrument, antibodies were captured for 30 seconds at a flow rate of 8 uL/min on a CM5 anti-humanFc-coupled surface. Approximately 120 RU of each antibody were captured. 10 nM hGITR.mmH (soluble monomeric hGITR, SEQ ID NO: 45) or 5 nM hGITR.mFc (dimeric Macaca fasicularis GITR, SEQ ID NO: 46) were injected over this surface for 5 minutes at a flow rate of 50 uL/min. Dissociation was measured for 10 min. The KD and t_{1/2} were calculated by fitting the double-referenced sensorgrams to a 1:1 binding model.
# [2] = biological target: T2, Jurkat/hCD20 cells (human CD20, no …); assay: flow cytometry on Jurkat/hCD20 cells
# Experimental: FIG. 5A, FIG. 5B, and FIG. 5C depict cell-surface binding of mAb1 and IgG1 isotype control at a range of concentrations (18 pM to 300 nM) on Jurkat/hCD20 (FIG. 5A), Jurkat/hCD20/hGITR (FIG. 5B), and Jurkat/hCD20/MfGITR (FIG. 5C) cells. Binding was detected using an Alexa647-labeled anti-human IgG by flow cytometry. Fluorescence intensity was plotted as geometric MFI. h, Human; Mf, Macaca fascicularis (cynomolgus monkey).
# (§1) Flow cytometry was used to evaluate mAb1 binding to Jurkat/hCD20/hGITR cells and Jurkat/hCD20/MfGITR cells. Jurkat/hCD20 cells were used as a negative control cell line for GITR binding. Cells were added to a 96-well V-bottom plate (2×10⁵ to 4×10⁵ cells/well) and incubated in Fc block solution, followed by successive incubation on ice with primary antibody (mAb1 or IgG1 isotype control) at final concentrations ranging from 18 pM to 300 nM and a secondary antibody (AF647-conjugated anti-human IgG) at 5 μg/mL. […] Data were analyzed with Flow.lo software. For EC₅₀ (effective concentration at 50% activity) determinations, measured geometric MFI values were analyzed using a 4-parameter logistic equation over a 9-point response curve with GraphPad Prism. The fold binding was determined by taking the ratio of the highest MFI on the curve to the MFI of the wells containing secondary antibody only.
# [3] = biological target: T2, Jurkat/hCD20 cells (human CD20, no …); assay: cell-based or functional assay
# [4] = biological target: T3, human GITR expressed on the cell surface; assay: cell-based or functional assay
# [5] = biological target: T1, hGITR.mFc (dimeric recombinant human …); assay: SPR Biacore 2000 25C; CHOt supernatant antibody captured on anti-human Fc; 50 nM hGITR.mFc
# Experimental: Biacore experiments for antibodies secreted in conditioned culture medium were performed as follows. Using a Biacore 2000 instrument at 25° C., antibodies were captured for 80 seconds at a flow rate of 8 uL/min on a CM5 anti-humanFc-coupled surface. Approximately 1000-2000 RU of each antibody were captured. 100 nM hGITR.mmH (soluble monomeric hGITR, SEQ ID NO: 45) or 50 nM hGITR.mFc (dimeric Macaca fasicularis GITR, SEQ ID NO: 46) were injected over this surface for 2 minutes at a flow rate of 50 uL/min. Dissociation was measured for 2 minutes. The KD and t_{1/2} were calculated by fitting the double-referenced sensorgrams to a 1:1 binding model.
# [6] = biological target: T4, cynomolgus monkey GITR expressed on the cell surface (Macaca fascicularis (cynomolgus monkey)); assay: flow cytometry on Jurkat/hCD20/MfGITR cells; max MFI over secondary antibody alone
# T4 construct: whole, on cells; also called MfGITR; Jurkat/hCD20/MfGITR cells
# Experimental: as §1, with “μg/mL. Cells were then stained with LIVE/DEAD Fixable Green Dead Cell Stain according to the manufacturer's instructions.” for “μg/mL.”
# (§2) ^a The maximum MFI was the highest mean MFI value within the concentration range tested (18 pM to 300 nM). ^b Fold binding was calculated as the maximum MFI above background (secondary antibody alone). h, Human; Mf, Macaca fascicularis (cynomolgus monkey); ND, Not determined because concentration-dependent binding was not observed
# [7] = biological target: T2, Jurkat/hCD20 cells (human CD20, no …); assay: flow cytometry on Jurkat/hCD20 control cells; max MFI over secondary antibody alone
# Experimental: as §1, with “μg/mL. Cells were then stained with LIVE/DEAD Fixable Green Dead Cell Stain according to the manufacturer's instructions.” for “μg/mL.”
# as §2
binder,measurement,setting,value
B1,Kd,[1],0.104 nM
same,t1/2,[1],71.7 min
same,binding result,[2],no binding (tested: 18 pM to 300 nM)
same,"Fold Change in Activity, NFAT-luciferase in Jurkat/NFAT-Luc/MfFcγR3a effector cells with Jurkat/hCD20 target cells",[3],1.02 fold
same,"Fold Change in Activity, NFAT-luciferase in Jurkat/NFAT-Luc/hFcγR3a effector cells with Jurkat/hCD20 target cells",[3],1.01 fold
same,"EC50, NFAT-luciferase in Jurkat/NFAT-Luc/hFcγR3a effector cells with Jurkat/hCD20/hGITR target cells",[4],32 pM
same,"Fold Change in Activity, NFAT-luciferase in Jurkat/NFAT-Luc/hFcγR3a effector cells with Jurkat/hCD20/hGITR target cells",[4],38 fold
same,Kd,[5],0.0813 nM
same,t1/2,[5],345 min
same,Fold Binding,[6],277 fold
same,Fold Binding,[7],1.06 fold
